According to paper PMC9706920, “Aryloxypropanolamine targets amyloid aggregates and reverses Alzheimer-like phenotypes in Alzheimer mouse models” (Alzheimer's Research & Therapy, 2022):
One block for each binder: values may come before it.

Molecular target: T1, Flamma 552-conjugated Aβ(1–42) (Flamma 552 dye conjugated (position not given))
T1 construct: numbers count on: the Aβ peptide; also called Flamma 552-labeled Aβ(1–42); monomeric Aβ(1–42) labeled with fluorescent dye Flamma 552
Experiment: peptide or protein array; Aβ hexapeptides and full-length Aβ(1–42), each with a C-terminal cysteine, immobilised on maleimide-activated microplates (50 μg/mL, binding buffer 0.1 M sodium phosphate, 0.15 M NaCl, 10 mM EDTA, pH 7.2); Flamma 552-Aβ(1–42) 10 μM in deionized water (10% DMSO), 37°C, 2 h; fluorescence 555/580 nm as baseline before YIAD002
Settings: both partners purified

- binding result: binds
B1: Aβ(16–21) fragment KLVFFA with a cysteine residue at the C-terminal (peptide)
chain: KLVFFAC
modifications: C-terminal cysteine coupled to the maleimide-activated microplate
notes: amyloid-β residues 16-21; numbers count on: the Aβ peptide; cysteine residue at the C-terminal, told in words, for immobilisation; source: synthetic peptide (Fmoc solid phase peptide synthesis)

- binding result: binds
B2: Aβ(32–37) fragment IGLMVG with a cysteine residue at the C-terminal (peptide)
chain: IGLMVGC
modifications: C-terminal cysteine coupled to the maleimide-activated microplate
notes: amyloid-β residues 32-37; numbers count on: the Aβ peptide; cysteine residue at the C-terminal, told in words, for immobilisation; source: synthetic peptide (Fmoc solid phase peptide synthesis)
